Source: PMC7156388

How the values were obtained:
[1] = tested on: His272 (position 272, VVDVSHEDPEV)
[2] = tested on: His57 (position 57, TWNSGHIDYAD)
[3] = tested on: His228 (position 228, SCDKTHTCPPC)
[4] = tested on: His289 (position 289, DGVEVHNAKTK)

Substance: Adalimumab (therapeutic monoclonal IgG1 kappa antibody, anti-TNF) (Homo sapiens (recombinant fully human antibody))
- pKa [1]: 7.0
- pKa [2]: 6.9
- pKa [3]: 6.4
- pKa [4]: 6.2
